Results: US20200261490

Columns and labels:
[1] = biological target: recombinant human stanniocalcin 1, C-terminally myc-his-tagged
[2] = biological target: recombinant human stanniocalcin 2, C-terminally myc-his-tagged

B1: recombinant human PAPP-A (pregnancy-associated plasma protein-A, pappalysin-1) (protein)
chain: EARGATEEPSPPSRALYFSGRGEQLRLRADLELPRDAFTLQVWLRAEGGQRSPAVITGLYDKCSYISRDRGWVVGIHTISDQDNKDPRYFFSLKTDRARQVTTINAHRSYLPGQWVYLAATYDGQFMKLYVNGAQVATSGEQVGGIFSPLTQKCKVLMLGGSALNHNYRGYIEHFSLWKVARTQREILSDMETHGAHTALPQLLLQENWDNVKHAWSPMKDGSSPKVEFSNAHGFLLDTSLEPPLCGQTLCDNTEVIASYNQLSSFRQPKVVRYRVVNLYEDDHKNPTVTREQVDFQHHQLAEAFKQYNISWELDVLEVSNSSLRRRLILANCDISKIGDENCDPECNHTLTGHDGGDCRHLRHPAFVKKQHNGVCDMDCNYERFNFDGGECCDPEITNVTQTCFDPDSPHRAYLDVNELKNILKLDGSTHLNIFFAKSSEEELAGVATWPWDKEALMHLGGIVLNPSFYGMPGHTHTMIHEIGHSLGLYHVFRGISEIQSCSDPCMETEPSFETGDLCNDTNPAPKHKSCGDPGPGNDTCGFHSFFNTPYNNFMSYADDDCTDSFTPNQVARMHCYLDLVYQGWQPSRKPAPVALAPQVLGHTTDSVTLEWFPPIDGHFFERELGSACHLCLEGRILVQYASNASSPMPCSPSGHWSPREAEGHPDVEQPCKSSVRTWSPNSAVNPHTVPPACPEPQGCYLELEFLYPLVPESLTIWVTFVSTDWDSSGAVNDIKLLAVSGKNISLGPQNVFCDVPLTIRLWDVGEEVYGIQIYTLDEHLEIDAAMLTSTADTPLCLQCKPLKYKVVRDPPLQMDVASILHLNRKFVDMDLNLGSVYQYWVITISGTEESEPSPAVTYIHGSGYCGDGIIQKDQGEQCDDMNKINGDGCSLFCRQEVSFNCIDEPSRCYFHDGDGVCEEFEQKTSIKDCGVYTPQGFLDQWASNASVSHQDQQCPGWVIIGQPAASQVCRTKVIDLSEGISQHAWYPCTISYPYSQLAQTTFWLRAYFSQPMVAAAVIVHLVTDGTYYGDQKQETISVQLLDTKDQSHDLGLHVLSCRNNPLIIPVVHDLSQPFYHSQAVRVSFSSPLVAISGVALRSFDNFDPVTLSSCQRGETYSPAEQSCVHFACEKTDCPELAVENASLNCSSSDRYHGAQCTVSCRTGYVLQIRRDDELIKSQTGPSVTVTCTEGKWNKQVACEPVDCSIPDHHQVYAASFSCPEGTTFGSQCSFQCRHPAQLKGNNSLLTCMEDGLWSFPEALCELMCLAPPPVPNADLQTARCRENKHKVGSFCKYKCKPGYHVPGSSRKSKKRAFKTQCTQDGSWQEGACVPVTCDPPPPKFHGLYQCTNGFQFNSECRIKCEDSDASQGLGSNVIHCRKDGTWNGSFHVCQEMQGQCSVPNELNSNLKLQCPDGYAIGSECATSCLDHNSESIILPMNVTVRDIPHWLNPTRVERVVCTAGLKWYPHPALIHCVKGCEPFMGDNYCDAINNRAFCNYDGGDCCTSTVKTKKVTPFPMSCDLQGDCACRDPQAQEHSRKDLRGYSHG
For B1, the “PAPP-A cleavage of IGFBP-4 with purified STC added at the beginning of the cleavage reaction” value [1] was “STC1 still inhibited PAPP-A”, the “PAPP-A cleavage of IGFBP-4 with purified STC added at the beginning of the cleavage reaction” value [2] was “in this experiment, no inhibitory effect of STC2 was observed” and the “PAPP-A mediated cleavage of 125I-IGFBP-4 after overnight pre-incubation” value [2] was “the presence of STC2 fully inhibited PAPP-A mediated IGFBP-4 cleavage”. The “PAPP-A proteolytic activity towards IGFBP-4 after 16 h incubation” value [2] was “after 16 hours of incubation with STC2, PAPP-A showed no activity”.

B2: human ADAM-10 (protein)
chain: TTSAEKNTCQLYIQTDHLFFKYYGTREAVIAQISSHVKAIDTIYQTTDFSGIRNISFMVKRIRINTTADEKDPTNPFRFPNIGVEKFLELNSEQNHDDYCLAYVFTDRDFDDGVLGLAWVGAPSGSSGGICEKSKLYSDGKKKSLNTGIITVQNYGSHVPPKVSHITFAHEVGHNFGSPHDSGTECTPGESKNLGQKENGNYIMYARATSGDKLNNNKFSLCSIRNISQVLEKKRNNCFVESGQPICGNGMVEQGEECDCGYSDQCKDECCFDANQPEGRKCKLKPGKQCSPSQGPCCTAQCAFKSKSEKCRDDSDCAREGICNGFTALCPASDPKPNFTDCNRHTQVCINGQCAGSICEKYGLEECTCASSDGKDDKELCHVCCMKKMDPSTCASTGSVQWSRHFSGRTITLQPGSPCNDFRGYCDVFMRCRLVDADGPLARLKKAIFSPELYENIAE
With B2 the “cleavage of 125I-IGFBP-5 by the proteinase with a 10-fold molar excess of STC” value [1] was “None of the proteinases tested was inhibited by STC1, or by STC2 following incubation” and the “cleavage of 125I-IGFBP-5 by the proteinase with a 10-fold molar excess of STC, 8 h preincubation” value [2] was “None of the proteinases tested was inhibited by STC1, or by STC2 following incubation”.

B3: human PAPP-A2 (pappalysin-2) (protein)
chain: PPEESNQNGGEGSYREAETFNSQVGLPILYFSGRRERLLLRPEVLAEIPREAFTVEAWVKPEGGQNNPAIIAGVFDNCSHTVSDKGWALGIRSGKDKGKRDARFFFSLCTDRVKKATILISHSRYQPGTWTHVAATYDGRHMALYVDGTQVASSLDQSGPLNSPFMASCRSLLLGGDSSEDGHYFRGHLGTLVFWSTALPQSHFQHSSQHSSGEEEATDLVLTASFEPVNTEWVPFRDEKYPRLEVLQGFEPEPEILSPLQPPLCGQTVCDNVELISQYNGYWPLRGEKVIRYQVVNICDDEGLNPIVSEEQIRLQHEALNEAFSRYNISWQLSVHQVHNSTLRHRVVLVNCEPSKIGNDHCDPECEHPLTGYDGGDCRLQGRCYSWNRRDGLCHVECNNMLNDFDDGDCCDPQVADVRKTCFDPDSPKRAYMSVKELKEALQLNSTHFLNIYFASSVREDLAGAATWPWDKDAVTHLGGIVLSPAYYGMPGHTDTMIHEVGHVLGLYHVFKGVSERESCNDPCKETVPSMETGDLCADTAPTPKSELCREPEPTSDTCGFTRFPGAPFTNYMSYTDDNCTDNFTPNQVARMHCYLDLVYQQWTESRKPTPIPIPPMVIGQTNKSLTIHWLPPISGVVYDRASGSLCGACTEDGTFRQYVHTASSRRVCDSSGYWTPEEAVGPPDVDQPCEPSLQAWSPEVHLYHMNMTVPCPTEGCSLELLFQHPVQADTLTLWVTSFFMESSQVLFDTEILLENKESVHLGPLDTFCDIPLTIKLHVDGKVSGVKVYTFDERIEIDAALLTSQPHSPLCSGCRPVRYQVLRDPPFASGLPVVVTHSHRKFTDVEVTPGQMYQYQVLAEAGGELGEASPPLNHIHGAPYCGDGKVSERLGEECDDGDLVSGDGCSKVCELEEGFNCVGEPSLCYMYEGDGICEPFERKTSIVDCGIYTPKGYLDQWATRAYSSHEDKKKCPVSLVTGEPHSLICTSYHPDLPNHRPLTGWFPCVASENETQDDRSEQPEGSLKKEDEVWLKVCFNRPGEARAIFIFLTTDGLVPGEHQQPTVTLYLTDVRGSNHSLGTYGLSCQHNPLIINVTHHQNVLFHHTTSVLLNFSSPRVGISAVALRTSSRIGLSAPSNCISEDEGQNHQGQSCIHRPCGKQDSCPSLLLDHADVVNCTSIGPGLMKCAITCQRGFALQASSGQYIRPMQKEILLTCSSGHWDQNVSCLPVDCGVPDPSLVNYANFSCSEGTKFLKRCSISCVPPAKLQGLSPWLTCLEDGLWSLPEVYCKLECDAPPIILNANLLLPHCLQDNHDVGTICKYECKPGYYVAESAEGKVRNKLLKIQCLEGGIWEQGSCIPVVCEPPPPVFEGMYECTNGFSLDSQCVLNCNQEREKLPILCTKEGLWTQEFKLCENLQGECPPPPSELNSVEYKCEQGYGIGAVCSPLCVIPPSDPVMLPENITADTLEHWMEPVKVQSIVCTGRRQWHPDPVLVHCIQSCEPFQADGWCDTINNRAYCHYDGGDCCSSTLSSKKVIPFAADCDLDECTCRDPKAEENQ
In the case of B3, the “cleavage of 125I-IGFBP-5 by PAPP-A2” value [1] is reported as “both STCs were able to partially inhibit PAPP-A2 (pappalysin-2)” and the “cleavage of 125I-IGFBP-5 by PAPP-A2” value [2] is reported as “both STCs were able to partially inhibit PAPP-A2 (pappalysin-2)”.

B4: human matrix metalloproteinase-2 (protein)
chain: APSPIIKFPGDVAPKTDKELAVQYLNTFYGCPKESCNLFVLKDTLKKMQKFFGLPQTGDLDQNTIETMRKPRCGNPDVANYNFFPRKPKWDKNQITYRIIGYTPDLDPETVDDAFARAFQVWSDVTPLRFSRIHDGEADIMINFGRWEHGDGYPFDGKDGLLAHAFAPGTGVGGDSHFDDDELWTLGEGQVVRVKYGNADGEYCKFPFLFNGKEYNSCTDTGRSDGFLWCSTTYNFEKDGKYGFCPHEALFTMGGNAEGQPCKFPFRFQGTSYDSCTTEGRTDGYRWCGTTEDYDRDKKYGFCPETAMSTVGGNSEGAPCVFPFTFLGNKYESCTSAGRSDGKMWCATTANYDDDRKWGFCPDQGYSLFLVAAHEFGHAMGLEHSQDPGALMAPIYTYTKNFRLSQDDIKGIQELYGASPDIDLGTGPTPTLGPVTPEICKQDIVFDGIAQIRGEIFFFKDRFIWRTVTPRDKPMGPLLVATFWPELPEKIDAVYEAPQEEKAVFFAGNEYWIYSASTLERGYPKPLTSLGLPPDVQRVDAAFNWSKNKKTYIFAGDKFWRYNEVKKKMDPGFPKLIADAWNAIPDNLDAVVDLQGGGHSYFFKGAYYLKLENQSLKSVKFGSIKSDWLGC
With B4 the “cleavage of 125I-IGFBP-5 by the proteinase with a 10-fold molar excess of STC” value [1] was “None of the proteinases tested was inhibited by STC1, or by STC2 following incubation” and the “cleavage of 125I-IGFBP-5 by the proteinase with a 10-fold molar excess of STC, 8 h preincubation” value [2] was “None of the proteinases tested was inhibited by STC1, or by STC2 following incubation”.

B5: human matriptase (protein)
chain: VVGGTDADEGEWPWQVSLHALGQGHICGASLISPNWLVSAAHCYIDDRGFRYSDPTQWTAFLGLHDQSQRSAPGVQERRLKRIISHPFFNDFTFDYDIALLELEKPAEYSSMVRPICLPDASHVFPAGKAIWVTGWGHTQYGGTGALILQKGEIRVINQTTCENLLPQQITPRMMCVGFLSGGVDSCQGDSGGPLSSVEADGRIFQAGVVSWGDGCAQRNKPGVYTRLPLFRDWIKENTGV
B5 was tested, and the “cleavage of 125I-IGFBP-5 by the proteinase with a 10-fold molar excess of STC” value [1] was “None of the proteinases tested was inhibited by STC1, or by STC2 following incubation” and the “cleavage of 125I-IGFBP-5 by the proteinase with a 10-fold molar excess of STC, 8 h preincubation” value [2] was “None of the proteinases tested was inhibited by STC1, or by STC2 following incubation”.
